Values of other authors, collected in article PMC3683042, “Solution Structure and Peptide Binding of the PTB Domain from the AIDA1 Postsynaptic Signaling Scaffolding Protein” (PLoS ONE, 2013).

Legend:
[1] = target: APP 11 aa peptide (Homo sapiens) (UniProt P05067)
[2] = target: APP 32 aa peptide (Homo sapiens) (UniProt P05067)
[3] = target: APP 14 aa peptide (Homo sapiens) (UniProt P05067)

Chain of Fe65 PTB2 (O00213 542-699): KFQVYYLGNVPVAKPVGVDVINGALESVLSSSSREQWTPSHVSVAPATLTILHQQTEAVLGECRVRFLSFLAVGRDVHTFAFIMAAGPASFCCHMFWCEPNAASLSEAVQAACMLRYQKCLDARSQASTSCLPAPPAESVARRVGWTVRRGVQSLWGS
Chain of APP 11 aa peptide (Homo sapiens) (P05067 whole entry, looked up, tested part not stated): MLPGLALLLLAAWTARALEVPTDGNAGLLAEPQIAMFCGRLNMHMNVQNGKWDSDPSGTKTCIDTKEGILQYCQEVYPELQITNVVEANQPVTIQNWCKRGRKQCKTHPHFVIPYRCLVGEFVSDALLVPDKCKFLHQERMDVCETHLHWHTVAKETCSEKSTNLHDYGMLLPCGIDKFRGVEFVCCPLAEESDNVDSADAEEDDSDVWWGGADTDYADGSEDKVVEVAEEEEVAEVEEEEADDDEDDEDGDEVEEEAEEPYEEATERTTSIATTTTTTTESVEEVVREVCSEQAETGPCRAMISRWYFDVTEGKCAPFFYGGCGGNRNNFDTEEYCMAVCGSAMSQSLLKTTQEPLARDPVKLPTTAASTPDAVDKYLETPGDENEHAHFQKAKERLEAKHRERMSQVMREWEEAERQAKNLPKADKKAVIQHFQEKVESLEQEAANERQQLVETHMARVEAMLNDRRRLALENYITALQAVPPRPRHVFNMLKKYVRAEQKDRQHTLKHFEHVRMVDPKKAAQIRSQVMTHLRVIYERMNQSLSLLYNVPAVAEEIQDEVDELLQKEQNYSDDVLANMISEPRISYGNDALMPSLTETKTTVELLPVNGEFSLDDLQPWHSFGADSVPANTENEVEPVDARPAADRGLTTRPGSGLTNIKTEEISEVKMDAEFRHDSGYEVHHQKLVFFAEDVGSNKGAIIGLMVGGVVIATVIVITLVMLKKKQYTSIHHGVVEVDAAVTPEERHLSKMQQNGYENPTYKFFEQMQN
Chain of X11 PTB (Q02410 457-643): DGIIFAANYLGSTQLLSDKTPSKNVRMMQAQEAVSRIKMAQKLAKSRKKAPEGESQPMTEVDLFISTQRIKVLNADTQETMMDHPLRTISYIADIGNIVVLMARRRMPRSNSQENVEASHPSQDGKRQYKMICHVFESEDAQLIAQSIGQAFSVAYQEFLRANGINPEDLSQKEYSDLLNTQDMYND
Chain of APP 32 aa peptide (Homo sapiens) (P05067 739-770): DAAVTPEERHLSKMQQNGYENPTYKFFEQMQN

Kd [1] [nM] | Kd [2] [nM] | Kd [3] [nM] | Substance
100000 | 200 | – | Fe65 PTB2 (from UniProt O00213)
– | – | 300 | X11 PTB (from UniProt Q02410)
